According to patent US20210395394A1:

Each binder was assayed against Pan-species-specific antigen Plasmodium Lactate DeHydrogenase (Pan-PLDH) protein (assay: indirect ELISA at four coating concentrations, KD calculated from half-maximal OD).

Row | Binder | Kd [nM]
1 | Mutation 1-6 (antibody, mouse IgG2b, kappa, V domains shown) VH: QVQLQQPGAELVRPGASVKLSCKASGTSFTNYWMNWVKQRPGQGLEWIGMIHPSDSETRINQKFKDKATLTVDKSSSTAYMQLSSLTAEDSAVYYCARSGDFYTSYFDYWGQGTTLTVSS VL: DIQLTQSPASLSASVGETVTITCRGTGNIHNYLAWYQQKQGKSPQLLVYNAKTLADGVPSRFSGSGSGTQYSLKINSLQPEDFGSYYCQTFWSTYTFGGGTKLEIKR | 0.664
2 | Mutation 1-5 (antibody, mouse IgG2b, kappa, V domains shown) VH: QVQLQQPGAELVRPGASVKLSCKASGSSFTNYWMNWVKQRPGQGLEWIGMIHPSDSETRVNQKFKDKATLTVDKSSSTAYMQLSSLTAEDSAVYYCAKSGEFYTTYFDYWGQGTTLTVSS VL: DIQLTQSPASLSASVGETVTITCRGTGNIHNYLAWYQQKQGKSPQLLVYNAKTLADGVPSRFSGSGSGTQYSLKINSLQPEDFGSYYCQSFWSTYTFGGGTKLEIKR | 0.532
3 | Mutation 1-10 (antibody, mouse IgG2b, kappa, V domains shown) VH: QVQLQQPGAELVRPGASVKLSCKASGTSFTNYWMNWVKQRPGQGLEWIGMIHPSESETRLNQKFKDKATLTVDKSSSTAYMQLSSLTAEDSAVYYCARSGEFYTYYFDYWGQGTTLTVSS VL: DIQLTQSPASLSASVGETVTITCRGTGNLHNYLAWYQQKQGKSPQLLVYNARTVADGVPSRFSGSGSGTQYSLKINSLQPEDFGSYYCQYFWSTYTFGGGTKLEIKR | 0.525
4 | Mutation 1-11 (antibody, mouse IgG2b, kappa, V domains shown) VH: QVQLQQPGAELVRPGASVKLSCKASGYSFTNYWMNWVKQRPGQGLEWIGMIHPSESETRVNQKFKDKATLTVDKSSSTAYMQLSSLTAEDSAVYYCARSGEFYTTYFDYWGQGTTLTVSS VL: DIQLTQSPASLSASVGETVTITCRGSGNLHNYLAWYQQKQGKSPQLLVYNARTIADGVPSRFSGSGSGTQYSLKINSLQPEDFGSYYCQTFWSTYTFGGGTKLEIKR | 0.465
5 | Mutation 1-7 (antibody, mouse IgG2b, kappa, V domains shown) VH: QVQLQQPGAELVRPGASVKLSCKASGSSFTNYWMNWVKQRPGQGLEWIGMIHPSDSETRLNQKFKDKATLTVDKSSSTAYMQLSSLTAEDSAVYYCARSGDFYTYYFDYWGQGTTLTVSS VL: DIQLTQSPASLSASVGETVTITCRGSGNIHNYLAWYQQKQGKSPQLLVYNAKTVADGVPSRFSGSGSGTQYSLKINSLQPEDFGSYYCQSFWSTYTFGGGTKLEIKR | 0.208
6 | Mutation 1-2 (antibody, mouse IgG2b, kappa, V domains shown) VH: QVQLQQPGAELVRPGASVKLSCKASGTSFTNYWMNWVKQRPGQGLEWIGMIHPSESETRVNQKFKDKATLTVDKSSSTAYMQLSSLTAEDSAVYYCAKSGDFYTTYFDYWGQGTTLTVSS VL: DIQLTQSPASLSASVGETVTITCRGSGNVHNYLAWYQQKQGKSPQLLVYNARTLADGVPSRFSGSGSGTQYSLKINSLQPEDFGSYYCQTFWSTYTFGGGTKLEIKR | 0.338
7 | Mutation 1-4 (antibody, mouse IgG2b, kappa, V domains shown) VH: QVQLQQPGAELVRPGASVKLSCKASGYSFTNYWMNWVKQRPGQGLEWIGMIHPSDSETRLNQKFKDKATLTVDKSSSTAYMQLSSLTAEDSAVYYCAKSGEFYTYYFDYWGQGTTLTVSS VL: DIQLTQSPASLSASVGETVTITCRGSGNIHNYLAWYQQKQGKSPQLLVYNAKTVADGVPSRFSGSGSGTQYSLKINSLQPEDFGSYYCQTFWSTYTFGGGTKLEIKR | 0.596
8 | Mutation 1-14 (antibody, mouse IgG2b, kappa, V domains shown) VH: QVQLQQPGAELVRPGASVKLSCKASGSSFTNYWMNWVKQRPGQGLEWIGMIHPSDSETRVNQKFKDKATLTVDKSSSTAYMQLSSLTAEDSAVYYCAKSGDFYTTYFDYWGQGTTLTVSS VL: DIQLTQSPASLSASVGETVTITCRGSGNVHNYLAWYQQKQGKSPQLLVYNAKTIADGVPSRFSGSGSGTQYSLKINSLQPEDFGSYYCQSFWSTYTFGGGTKLEIKR | 0.488
9 | Mutation 1-8 (antibody, mouse IgG2b, kappa, V domains shown) VH: QVQLQQPGAELVRPGASVKLSCKASGYSFTNYWMNWVKQRPGQGLEWIGMIHPSDSETRVNQKFKDKATLTVDKSSSTAYMQLSSLTAEDSAVYYCARSGDFYTTYFDYWGQGTTLTVSS VL: DIQLTQSPASLSASVGETVTITCRGTGNVHNYLAWYQQKQGKSPQLLVYNAKTIADGVPSRFSGSGSGTQYSLKINSLQPEDFGSYYCQYFWSTYTFGGGTKLEIKR | 0.481
10 | Mutation 1-9 (antibody, mouse IgG2b, kappa, V domains shown) VH: QVQLQQPGAELVRPGASVKLSCKASGSSFTNYWMNWVKQRPGQGLEWIGMIHPSESETRINQKFKDKATLTVDKSSSTAYMQLSSLTAEDSAVYYCARSGEFYTSYFDYWGQGTTLTVSS VL: DIQLTQSPASLSASVGETVTITCRGSGNVHNYLAWYQQKQGKSPQLLVYNARTLADGVPSRFSGSGSGTQYSLKINSLQPEDFGSYYCQSFWSTYTFGGGTKLEIKR | 0.616
11 | Mutation 1-13 (antibody, mouse IgG2b, kappa, V domains shown) VH: QVQLQQPGAELVRPGASVKLSCKASGTSFTNYWMNWVKQRPGQGLEWIGMIHPSDSETRLNQKFKDKATLTVDKSSSTAYMQLSSLTAEDSAVYYCAKSGDFYTYYFDYWGQGTTLTVSS VL: DIQLTQSPASLSASVGETVTITCRGTGNLHNYLAWYQQKQGKSPQLLVYNAKTLADGVPSRFSGSGSGTQYSLKINSLQPEDFGSYYCQTFWSTYTFGGGTKLEIKR | 0.531
12 | Mutation 1-12 (antibody, mouse IgG2b, kappa, V domains shown) VH: QVQLQQPGAELVRPGASVKLSCKASGYSFTNYWMNWVKQRPGQGLEWIGMIHPSDSETRINQKFKDKATLTVDKSSSTAYMQLSSLTAEDSAVYYCAKSGDFYTSYFDYWGQGTTLTVSS VL: DIQLTQSPASLSASVGETVTITCRGSGNLHNYLAWYQQKQGKSPQLLVYNAKTVADGVPSRFSGSGSGTQYSLKINSLQPEDFGSYYCQYFWSTYTFGGGTKLEIKR | 0.118
13 | Mutation 1-3 (antibody, mouse IgG2b, kappa, V domains shown) VH: QVQLQQPGAELVRPGASVKLSCKASGTSFTNYWMNWVKQRPGQGLEWIGMIHPSDSETRINQKFKDKATLTVDKSSSTAYMQLSSLTAEDSAVYYCAKSGEFYTSYFDYWGQGTTLTVSS VL: DIQLTQSPASLSASVGETVTITCRGTGNVHNYLAWYQQKQGKSPQLLVYNAKTIADGVPSRFSGSGSGTQYSLKINSLQPEDFGSYYCQYFWSTYTFGGGTKLEIKR | 0.098
14 | Mutation 1-1 (antibody, mouse IgG2b, kappa, V domains shown) VH: QVQLQQPGAELVRPGASVKLSCKASGYSFTNYWMNWVKQRPGQGLEWIGMIHPSESETRLNQKFKDKATLTVDKSSSTAYMQLSSLTAEDSAVYYCAKSGDFYTYYFDYWGQGTTLTVSS VL: DIQLTQSPASLSASVGETVTITCRGTGNLHNYLAWYQQKQGKSPQLLVYNARTVADGVPSRFSGSGSGTQYSLKINSLQPEDFGSYYCQYFWSTYTFGGGTKLEIKR | 0.521

Other lines, results leading:

Row | Kd [nM] | Binder
15 | 1.56 | WT 1-6 (antibody, mouse IgG2b, kappa, V domains shown) VH: QVQLQQPGAELVRPGASVKLSCKASGTSFTNYFMNWVKQRPGQGLEWIGMINPSDSETRLNQKFKDKATLTVDKSSSTAYMQLSSLTAEDSAVYYCARSGDFYTYYWDYWGQGTTLTVSS VL: DIQLTQSPASLSASVGETVTITCRGSGNIHNYIAWYQQKQGKSPQLLVYNAKTVADGVPSRFSGSGSGTQYSLKINSLQPEDFGSYYCQSFWSSYTFGGGTKLEIKR
16 | 0.567 | Mutation 1-18 (antibody, mouse IgG2b, kappa, V domains shown) VH: QVQLQQPGAELVRPGASVKLSCKASGTSFTNYWMNWVKQRPGQGLEWIGMIHPSDSETRINQKFKDKATLTVDKSSSTAYMQLSSLTAEDSAVYYCARSGDFYTSYFDYWGQGTTLTVSS VL: DIQLTQSPASLSASVGETVTITCRGTGNIHNYLAWYQQKQGKSPQLLVYNAKTIADGVPSRFSGSGSGTQYSLKINSLQPEDFGSYYCQSFWSTYTFGGGTKLEIKR
17 | 0.37 | Mutation 1-17 (antibody, mouse IgG2b, kappa, V domains shown) VH: QVQLQQPGAELVRPGASVKLSCKASGTSFTNYWMNWVKQRPGQGLEWIGMIHPSESETRVNQKFKDKATLTVDKSSSTAYMQLSSLTAEDSAVYYCAKSGEFYTTYFDYWGQGTTLTVSS VL: DIQLTQSPASLSASVGETVTITCRGTGNIHNYLAWYQQKQGKSPQLLVYNARTVADGVPSRFSGSGSGTQYSLKINSLQPEDFGSYYCQTFWSTYTFGGGTKLEIKR
18 | 0.411 | Mutation 1-16 (antibody, mouse IgG2b, kappa, V domains shown) VH: QVQLQQPGAELVRPGASVKLSCKASGYSFTNYWMNWVKQRPGQGLEWIGMIHPSESETRLNQKFKDKATLTVDKSSSTAYMQLSSLTAEDSAVYYCAKSGEFYTYYFDYWGQGTTLTVSS VL: DIQLTQSPASLSASVGETVTITCRGSGNIHNYLAWYQQKQGKSPQLLVYNARTLADGVPSRFSGSGSGTQYSLKINSLQPEDFGSYYCQSFWSTYTFGGGTKLEIKR
19 | 0.621 | WT 1-9 (antibody, mouse IgG2b, kappa, V domains shown) VH: QVQLQQPGAELVRPGASVKLSCKASGSSFTNYFMNWVKQRPGQGLEWIGMINPSESETRINQKFKDKATLTVDKSSSTAYMQLSSLTAEDSAVYYCAKSGEFYTYYWDYWGQGTTLTVSS VL: DIQLTQSPASLSASVGETVTITCRGTGNVHNYIAWYQQKQGKSPQLLVYNARTLADGVPSRFSGSGSGTQYSLKINSLQPEDFGSYYCQTFWSSYTFGGGTKLEIKR
20 | 0.757 | WT 1-7 (antibody, mouse IgG2b, kappa, V domains shown) VH: QVQLQQPGAELVRPGASVKLSCKASGSSFTNYFMNWVKQRPGQGLEWIGMINPSDSETRVNQKFKDKATLTVDKSSSTAYMQLSSLTAEDSAVYYCARSGEFYTSYWDYWGQGTTLTVSS VL: DIQLTQSPASLSASVGETVTITCRGTGNVHNYIAWYQQKQGKSPQLLVYNAKTLADGVPSRFSGSGSGTQYSLKINSLQPEDFGSYYCQYFWSSYTFGGGTKLEIKR
21 | 0.47 | Mutation 1-15 (antibody, mouse IgG2b, kappa, V domains shown) VH: QVQLQQPGAELVRPGASVKLSCKASGSSFTNYWMNWVKQRPGQGLEWIGMIHPSESETRINQKFKDKATLTVDKSSSTAYMQLSSLTAEDSAVYYCAKSGEFYTSYFDYWGQGTTLTVSS VL: DIQLTQSPASLSASVGETVTITCRGTGNVHNYLAWYQQKQGKSPQLLVYNARTVADGVPSRFSGSGSGTQYSLKINSLQPEDFGSYYCQTFWSTYTFGGGTKLEIKR
22 | 1.36 | WT 1-8 (antibody, mouse IgG2b, kappa, V domains shown) VH: QVQLQQPGAELVRPGASVKLSCKASGTSFTNYFMNWVKQRPGQGLEWIGMINPSDSETRVNQKFKDKATLTVDKSSSTAYMQLSSLTAEDSAVYYCAKSGEFYTSYWDYWGQGTTLTVSS VL: DIQLTQSPASLSASVGETVTITCRGSGNVHNYIAWYQQKQGKSPQLLVYNAKTIADGVPSRFSGSGSGTQYSLKINSLQPEDFGSYYCQSFWSSYTFGGGTKLEIKR
